Patent US20230203172A1 (SHANGHAI MABGEEK BIOTECH, published 2023)
Numbering of substitutions follows the chain as printed.

B1: humanized anti-hIL-4R alpha monoclonal antibody 59-Hu (antibody, human IgG4 S228P, kappa, V domains shown)
VH: EVQLVESGGGLVQPGGSLRLSCAASGFTFSDYGIHWVRQAPGKGLEWVSYIRSDSSIIHYADTVKGRFTISRDNAKNSLYLQMNSLRAEDTAVYYCARGRDRGYFDYWGQGTLVTVSS
VL: EIVLTQSPATLSLSPGERATLSCSASSSVSYMYWYQQKPGQAPRPWIYLTSNLASGVPARFSGSGSGTDFTLTISSLEPEDFAVYYCQQWTSIPFTFGQGTKVEIKR
notes: Humanized, human IgG4 constant region; expressed in HEK293, purified on ProteinA
B2: humanized anti-hIL-4R alpha monoclonal antibody 131-Hu (antibody, human IgG4 S228P, kappa, V domains shown)
VH: EVQLVESGGGLVQPGGSLRLSCAASGFTFSDYGMHWVRQAPGKGLEWVSYISSGSSTIYYADTVKGRFTISRDNAKNSLYLQMNSLRAEDTAVYYCARISTVVAKRYAMDYWGQGTLVTVSS
VL: DIQMTQSPSSLSASVGDRVTITCRASQDISNYLNWYQQKPGKAPKLLIYYTSRLHSGVPSRFSGSGSGTDFTLTISSLQPEDIATYYCQEVNMLPFTFGQGTKVEIKR
notes: as for B1
B3: humanized anti-hIL-4R alpha monoclonal antibody 136-Hu (antibody, human IgG4 S228P, kappa, V domains shown)
VH: B2 VH with S56T
VL: B2 VL with E90Q, V91I, M93A, V104L
notes: as for B1
B4: humanized anti-hIL-4R alpha monoclonal antibody 236-Hu (antibody, human IgG4 S228P, kappa, V domains shown)
VH: QVQLVQSGAEVKKPGASVKVSCKASGYTFTDYNVDWVRQAPGQGLEWIGTINPNNGGILSNQKFKGRVTITVDTSASTAYMELSSLRSEDTAVYYCGRGGLRRRGFMDYWGQGTLVTVSS
VL: B1 VL with S24R, S30I, M32I, Y33H, L49A, T50A, A54P, T91S, I93N, F95P
notes: as for B1

Legend:
hIL-4R alpha-ECD-Flag = molecular target: T1, hIL-4R alpha-ECD-Flag (human, UniProt P24394 26-232); assay: SPR, Biacore T200, antibody captured on Protein-A chip, hIL-4R alpha-ECD-Flag as analyte
T1 construct: range 26-232; Analyte of the Biacore experiment
Protocol: The affinity of six purified humanized antibodies was detected by Biacore T200 (GE healthcare), with the reference antibody Dupilumab as a control. The specific experimental method was as follows: a Protein-A CMS sensor chip (GE healthcare) was used, with FC1 (Flow cell 1) as a reference channel, and FC2 (Flow cell 2) as a sample channel. Humanized antibodies or control antibody were captured in the FC2 channel, and then hIL-4R alpha-ECD-Flag at different concentrations was injected. Cycling conditions were as follows: an analyte was injected into all channels of FCs at 50 μl/min for 4 min, with a dissociation time of 20 min, and 6M guanidine hydrochloride (Sinopharm Chemical Reagent Co., Ltd.) was injected at a rate of 10 μl/min for 30 s for surface regeneration. Then, signal differences and affinity for interaction between captured antibodies and non-captured antibodies were calculated by Biacore T200 Evaluation Software Ver 1.0.

[1] = molecular target: human IL-4R alpha on cells (TF-1 cells; human peripheral blood mononuclear cells) (human, UniProt P24394 26-825); assay: cell-based or functional assay

Binder | Kd (hIL-4R alpha-ECD-Flag) [nM] | koff (hIL-4R alpha-ECD-Flag) [s⁻¹] | kon (hIL-4R alpha-ECD-Flag) [M⁻¹ s⁻¹] | IC50 (ng/ml), inhibition of IL-4-induced TF-1 cell proliferation [1] [ng/mL]
B1 | 0.25 | 0.000284 | 1.14e+06 | 296
B2 | 0.33 | 0.000111 | 335000 | 90.6
B3 | 0.154 | 9.8e-05 | 635000 | 84.3
B4 | 0.173 | 0.000255 | 1.48e+06 | 54.6
